Source: patent US20200317768A1 (published 2020)
Where a chain is given by its changes, count along the chain named.

Key:
Assay in all cases: SPR (BIACORE), antibody captured, FcγR as analyte, 25°C
[1] = target: T1, cynomolgus monkey FcγRIIa1 extracellular domain, His-tagged (cynomolgus monkey)
T1 construct: also called cyno FcgRIIa1; cynoFcγRIIa1; not shown: His-tag added to the C-terminus
T1 chain: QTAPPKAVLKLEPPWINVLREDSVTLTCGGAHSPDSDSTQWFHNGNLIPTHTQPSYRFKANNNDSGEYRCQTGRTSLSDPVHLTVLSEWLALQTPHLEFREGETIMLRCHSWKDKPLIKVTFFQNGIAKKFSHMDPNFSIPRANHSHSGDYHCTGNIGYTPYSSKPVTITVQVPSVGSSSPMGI

[2] = target: T2, human FcγRIIaR extracellular domain, His-tagged (human, UniProt P12318 34-217)
T2 construct: also called human FcgRIIaR; FcγRIIa (type R); not shown: His-tag added to the C-terminus
T2 chain: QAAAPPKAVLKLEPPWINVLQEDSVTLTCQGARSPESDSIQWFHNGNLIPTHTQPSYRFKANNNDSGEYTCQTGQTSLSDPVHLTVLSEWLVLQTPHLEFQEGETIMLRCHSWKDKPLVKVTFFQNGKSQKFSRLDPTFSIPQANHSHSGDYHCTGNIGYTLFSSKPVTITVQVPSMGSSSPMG

[3] = target: T3, human FcγRIIIaV extracellular domain, His-tagged (human, UniProt P08637 17-208)
T3 construct: also called human FcgRIIIaV; not shown: His-tag added to the C-terminus
T3 sequence (P08637 17-208 F176V): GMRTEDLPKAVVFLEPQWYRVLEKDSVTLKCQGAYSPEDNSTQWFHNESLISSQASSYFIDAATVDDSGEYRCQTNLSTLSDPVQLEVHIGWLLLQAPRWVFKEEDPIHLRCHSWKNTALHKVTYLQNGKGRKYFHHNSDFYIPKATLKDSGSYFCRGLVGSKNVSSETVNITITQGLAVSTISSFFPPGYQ

B1: M103205H795-MY264/M103202L889-SK1 (antibody, human IgG1, kappa)
heavy: QVTLKESGPVLVKPTETLTLTCTVSGIDLSHDDISWVRQAPGKGLEWVGIISYAGSTYYASWAKGRLTISKDTSKNQVVLTMTNMDPVDTATYYCARGVPAYSHGGDLWGQGTLVTVSSASTKGPSVFPLAPSSKSTSGGTAALGCLVKDYFPEPVTVSWNSGALTSGVHTFPAVLQSSGLYSLSSVVTVPSSSLGTQTYICNVNHKPSNTKVDKKVEPKSCDKTHTCPPCPAPELLLGPSVFLFPPKPKDTLMISRTPEVTCVVVDVSDEDPEVKFNWYVDGVEVHNAKTKPREEQYNSTYRVVSVLTVLHQDWLNGKEYKCKVSNKALPKPIEKTISKAKGQPREPQVYTLPPSREEMTKNQVSLTCLVKGFYPSDIAVEWESNGQPENNYKTTPPVLDSDGSFFLYSKLTVDKSRWQQGNVFSCSVMHEALHNHYTQKSLSLSP
light: DIVMTQSPATLSLSPGERATLSCTSSQSVYHANWLSWFQQKPGQPPKLLIYWASTLAYGVPSRFSGSGSGTDFTLTISSLQPEDAATYYCAGGYGGGRYAFGQGTKVEIKRTVAAPSVFIFPPSDEQLKSGTASVVCLLNNFYPREAKVQWKVDNALQSGNSQESVTEQDSKDSTYSLSSTLTLSKADYEKHKVYACEVTHQGLSSPVTKSFNRGEC
notes: copies: 2 + 2
Kd [1]: 5.6 µM
Kd [2]: 2.3 µM
Kd [3]: 64 µM

B2: M103205H795-MY265/M103202L889-SK1 (antibody, human IgG1, kappa)
heavy: B1 heavy with L238T
light: B1 light
notes: copies: 2 + 2
Kd [1]: 2.2 µM
Kd [2]: 0.44 µM
Kd [3]: 54 µM

B3: M103205H795-MY267/M103202L889-SK1 (antibody, human IgG1, kappa)
heavy: B1 heavy with L238I
light: B1 light
notes: copies: 2 + 2
Kd [1]: 24 µM
Kd [2]: 0.72 µM
Kd [3]: 15 µM
